Measurements reported in patent publication US20210063414A1, “METHODS FOR PREVENTING AND/OR TREATING BONE LOSS CONDITIONS BY MODULATING IRISIN” (Dana-Farber Cancer Institute, Inc., priority 2018, published 2021).

Columns and labels:
Assay in all cases: Crosslinking/co-immunoprecipitation/mass spectrometry (TMT quantitative proteomics) to identify irisin receptors
Assay type in all cases: binding
[1] = biological target: T1, MLO-Y4 cell surface proteins (Mus musculus, UniProt Q8K273); details: TMT ratio, Mmgt1 Membrane magnesium transporter 1
T1 construct: endogenous in cells; host or cells: MLO-Y4
T1 sequence (Q8K273 1-131): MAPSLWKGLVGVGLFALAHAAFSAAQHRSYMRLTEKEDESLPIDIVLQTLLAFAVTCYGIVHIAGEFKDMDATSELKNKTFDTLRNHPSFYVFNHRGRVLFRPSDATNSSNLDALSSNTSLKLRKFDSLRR
Experimental: (§1) MLO-Y4 cells were seeded on 30×150 mm type-I collagen coated dishes as described in cell culture experiment. At 60% cell density, medium was switched to FreeStyle™ 293 Expression medium. After 4 hours incubation, the cells were chilled on ice for 10 minutes, followed by treatment of 10 nM his-tag irisin or his-tag adipsin for 20 minutes. The cells were then incubated with 1.5 mM DTSSP for 30 minutes on ice to do cross-linking, after washing with 15 ml cold PBS twice. The cross-linking was quenched by addition of a final concentration of 20 mM Tris-pH 7.5. The cells were then harvested and homogenized in 1 ml RIPA buffer containing proteaseinhibitor cocktailand phosphatase-inhibitor cocktail. Whole-cell lysates were homogenized by 10 times passages through a 22G needle fitted to a 3 ml syringe. Homogenized samples were rotated gently in cold room for 20 minutes followed by 15,000×g centrifugation for 10 minutes. After addition of a final concentration of 10 mM imidazole, supernatants were incubated with 100 μl Ni-NTA agarose for 1 hour. After centrifugation at 500×g for 1 minute, the supernatants were aspirated and 1 ml cold RIPA buffer containing 10 mM imidazole were added to the agarose. After 10 minutes rotation in cold room, the supernatants were aspirated and 1 ml cold RIPA buffer containing 30 mM imidazole were added to the agarose. After repeating the washing 3 times, 0.8 ml RIPA buffer containing 250 mM imidazole was added and the agarose was gently rotated in a cold room for 20 minutes. After centrifugation at 1000×g for 2 minutes, the supernatants were transferred to 1.5 ml tube and incubated with 100 μl 0.2% sodium deoxycholate and 100 μl 10% trichloroacetic acid in ice for 1 hour. After centrifugation at 12,000×g for 10 minutes at 4° C., the supernatants were removed and 1 ml cold acetone was added to the pellets followed by vortexing for 10 seconds. After one more washing with cold acetone, the pellets were dried at 37° C., and 39 μl PBS and 13 μl 4×NuPAGE LDS were added to the pellets with a final concentration of 5 mM DTT. Solubilized proteins were incubated at 65° C. for 20 minutes followed by incubation with a final concentration of 14 mM iodoacetamide for 45 minutes in the dark. 38 μl samples were loaded to 4-12% gradient SDS-PAGE for separation followed by Coomassie Blue staining. The gels were submitted to quantitative proteomics.
(§2) For in-gel digestions, gels were stained with Coomassie Blue and were excised into 8 equal segments for control and irisin lanes. Gel pieces were destained and dehydrated with 100% acetonitrile, vacuumed dried, and digested in 25 mM HEPES (pH 8.5) with 500 ng sequencing grade trypsin (Promega) and incubated for an overnight at 37° C. (Shevchenko et al. (1996) Anal. Chem. 68:850-858). Digests were treated with 1% formic acid and purified using C18 Stage-Tips as previously described (Rappsilber et al. (2007) Nat. Protoc. 2:1896-1906). Peptides were eluted with 70% acetonitrile and 1% formic acid, then dried using a speedvac. Isobaric labeling of digested peptides was accomplished using 6-plex tandem mass tag (TMT) reagents (Thermo Fisher Scientific, Rockford, Ill.). Reagents, 5.0 mg, were dissolved in 252 μl acetonitrile (ACN) and 5 μl of the solution was added to the digested peptides dissolved in 25 μl of 200 mM HEPES, pH 8.5. After 1 hour at room temperature, the reaction was quenched by adding 1 μl of 5% hydroxylamine. Labeled peptides were combined and acidified prior to C18 Stage-Tips desalting.
(§3) All LC-MS/MS experiments were performed on an Orbitrap Fusion™ Lumos mass spectrometer (Thermo Fisher Scientific, San Jose, Calif., USA) coupled with a Proxeon EASY-nLC™ 1200 LC pump (Thermo Fisher Scientific). Peptides were separated on a 100 μm inner diameter microcapillary column packed with 35 cm of Accucore™ C18 resin (1.8 μm, 100 Å, Thermo Fisher Scientific). […]

[2] = biological target: T2, MLO-Y4 cell surface proteins (Mus musculus, UniProt E9Q557); details: co-precipitated protein Dsp (DESP_MOUSE)
T2 construct: endogenous in cells; host or cells: MLO-Y4
T2 sequence (E9Q557 whole entry): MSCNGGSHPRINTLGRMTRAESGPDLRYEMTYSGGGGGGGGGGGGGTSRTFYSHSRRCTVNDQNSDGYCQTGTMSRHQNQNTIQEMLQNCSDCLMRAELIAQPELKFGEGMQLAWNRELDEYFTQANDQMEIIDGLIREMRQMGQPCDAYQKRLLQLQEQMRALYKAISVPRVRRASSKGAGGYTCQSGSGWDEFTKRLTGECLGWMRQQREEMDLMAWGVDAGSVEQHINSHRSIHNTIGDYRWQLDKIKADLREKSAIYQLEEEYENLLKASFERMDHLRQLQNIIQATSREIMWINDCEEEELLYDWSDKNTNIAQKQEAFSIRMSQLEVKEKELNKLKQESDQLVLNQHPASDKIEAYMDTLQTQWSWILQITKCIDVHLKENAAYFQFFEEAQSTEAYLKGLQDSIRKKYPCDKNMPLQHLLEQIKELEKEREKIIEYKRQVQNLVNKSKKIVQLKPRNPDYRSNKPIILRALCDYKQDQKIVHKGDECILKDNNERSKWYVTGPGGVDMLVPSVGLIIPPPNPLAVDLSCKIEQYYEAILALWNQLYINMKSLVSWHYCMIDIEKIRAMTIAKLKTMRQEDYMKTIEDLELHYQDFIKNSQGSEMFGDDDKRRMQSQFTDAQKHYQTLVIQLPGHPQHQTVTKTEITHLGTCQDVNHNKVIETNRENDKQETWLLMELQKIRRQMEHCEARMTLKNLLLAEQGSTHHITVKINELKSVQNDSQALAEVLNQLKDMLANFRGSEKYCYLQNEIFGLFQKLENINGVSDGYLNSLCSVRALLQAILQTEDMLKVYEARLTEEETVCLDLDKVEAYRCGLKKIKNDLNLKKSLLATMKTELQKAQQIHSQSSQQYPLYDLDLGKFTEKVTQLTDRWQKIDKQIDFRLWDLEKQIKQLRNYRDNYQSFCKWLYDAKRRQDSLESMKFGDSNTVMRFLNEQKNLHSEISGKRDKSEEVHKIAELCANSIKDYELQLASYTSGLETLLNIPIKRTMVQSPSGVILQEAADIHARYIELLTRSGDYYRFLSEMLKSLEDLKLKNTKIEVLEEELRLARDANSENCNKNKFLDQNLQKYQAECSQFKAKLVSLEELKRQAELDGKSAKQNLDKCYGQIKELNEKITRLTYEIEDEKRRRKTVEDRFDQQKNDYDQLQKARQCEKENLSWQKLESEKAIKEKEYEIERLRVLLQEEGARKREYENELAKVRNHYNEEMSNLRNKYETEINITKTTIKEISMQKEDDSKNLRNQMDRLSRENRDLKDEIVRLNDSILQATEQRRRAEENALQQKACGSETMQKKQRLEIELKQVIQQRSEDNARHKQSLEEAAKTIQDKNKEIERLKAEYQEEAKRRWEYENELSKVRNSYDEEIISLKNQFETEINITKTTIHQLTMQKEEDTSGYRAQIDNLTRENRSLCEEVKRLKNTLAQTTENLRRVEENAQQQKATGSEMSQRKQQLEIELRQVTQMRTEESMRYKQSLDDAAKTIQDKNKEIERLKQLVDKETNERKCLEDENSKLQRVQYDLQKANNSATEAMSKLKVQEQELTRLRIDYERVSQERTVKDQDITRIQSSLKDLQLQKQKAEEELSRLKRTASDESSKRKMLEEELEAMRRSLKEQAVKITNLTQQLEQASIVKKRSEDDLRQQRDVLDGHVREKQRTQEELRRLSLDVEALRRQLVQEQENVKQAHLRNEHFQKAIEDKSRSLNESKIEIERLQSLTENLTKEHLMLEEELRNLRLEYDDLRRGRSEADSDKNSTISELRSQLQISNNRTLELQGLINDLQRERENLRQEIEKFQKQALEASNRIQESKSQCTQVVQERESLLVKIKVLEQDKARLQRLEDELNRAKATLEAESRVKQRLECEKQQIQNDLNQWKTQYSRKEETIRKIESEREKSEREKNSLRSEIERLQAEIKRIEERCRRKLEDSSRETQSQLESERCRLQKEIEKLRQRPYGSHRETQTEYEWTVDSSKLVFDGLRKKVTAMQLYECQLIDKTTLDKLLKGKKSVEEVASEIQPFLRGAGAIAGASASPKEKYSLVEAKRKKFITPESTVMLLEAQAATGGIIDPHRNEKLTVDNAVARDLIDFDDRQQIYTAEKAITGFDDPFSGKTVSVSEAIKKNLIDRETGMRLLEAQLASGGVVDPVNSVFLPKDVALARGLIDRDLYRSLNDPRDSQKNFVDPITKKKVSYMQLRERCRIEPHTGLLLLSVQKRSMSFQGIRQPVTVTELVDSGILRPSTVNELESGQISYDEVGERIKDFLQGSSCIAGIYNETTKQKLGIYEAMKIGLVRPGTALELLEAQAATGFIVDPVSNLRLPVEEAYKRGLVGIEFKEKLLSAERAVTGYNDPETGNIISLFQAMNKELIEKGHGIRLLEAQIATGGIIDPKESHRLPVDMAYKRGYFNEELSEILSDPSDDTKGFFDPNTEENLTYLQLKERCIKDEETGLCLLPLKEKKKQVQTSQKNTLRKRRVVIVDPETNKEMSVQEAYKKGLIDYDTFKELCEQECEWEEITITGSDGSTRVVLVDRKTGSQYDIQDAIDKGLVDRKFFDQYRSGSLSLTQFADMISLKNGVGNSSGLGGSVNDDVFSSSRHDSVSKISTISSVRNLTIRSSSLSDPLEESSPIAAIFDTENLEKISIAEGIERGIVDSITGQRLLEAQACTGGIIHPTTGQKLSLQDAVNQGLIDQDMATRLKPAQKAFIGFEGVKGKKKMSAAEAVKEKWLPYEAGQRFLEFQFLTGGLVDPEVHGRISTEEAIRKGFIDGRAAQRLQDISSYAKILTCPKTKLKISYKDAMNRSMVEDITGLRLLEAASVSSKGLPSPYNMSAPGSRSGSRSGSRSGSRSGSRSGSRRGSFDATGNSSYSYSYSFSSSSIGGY
Experimental: as §1, §2, §3

[3] = biological target: T3, MLO-Y4 cell surface proteins (Mus musculus, UniProt P08249); details: co-precipitated protein Mdh2 (MDHM_MOUSE)
T3 construct: endogenous in cells; host or cells: MLO-Y4
T3 sequence (P08249 25-338): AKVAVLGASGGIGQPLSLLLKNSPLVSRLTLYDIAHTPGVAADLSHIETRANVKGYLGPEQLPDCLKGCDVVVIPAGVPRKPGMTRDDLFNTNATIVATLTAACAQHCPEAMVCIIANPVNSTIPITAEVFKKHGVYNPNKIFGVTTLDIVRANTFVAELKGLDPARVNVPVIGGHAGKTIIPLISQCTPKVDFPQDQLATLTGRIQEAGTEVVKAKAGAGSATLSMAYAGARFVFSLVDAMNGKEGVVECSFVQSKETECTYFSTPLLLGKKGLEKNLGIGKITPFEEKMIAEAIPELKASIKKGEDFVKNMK
Experimental: as §1, §2, §3

[4] = biological target: T4, MLO-Y4 cell surface proteins (Mus musculus, UniProt Q921G7); details: co-precipitated protein Etfdh (ETFD_MOUSE)
T4 construct: endogenous in cells; host or cells: MLO-Y4
T4 sequence (Q921G7 33-616): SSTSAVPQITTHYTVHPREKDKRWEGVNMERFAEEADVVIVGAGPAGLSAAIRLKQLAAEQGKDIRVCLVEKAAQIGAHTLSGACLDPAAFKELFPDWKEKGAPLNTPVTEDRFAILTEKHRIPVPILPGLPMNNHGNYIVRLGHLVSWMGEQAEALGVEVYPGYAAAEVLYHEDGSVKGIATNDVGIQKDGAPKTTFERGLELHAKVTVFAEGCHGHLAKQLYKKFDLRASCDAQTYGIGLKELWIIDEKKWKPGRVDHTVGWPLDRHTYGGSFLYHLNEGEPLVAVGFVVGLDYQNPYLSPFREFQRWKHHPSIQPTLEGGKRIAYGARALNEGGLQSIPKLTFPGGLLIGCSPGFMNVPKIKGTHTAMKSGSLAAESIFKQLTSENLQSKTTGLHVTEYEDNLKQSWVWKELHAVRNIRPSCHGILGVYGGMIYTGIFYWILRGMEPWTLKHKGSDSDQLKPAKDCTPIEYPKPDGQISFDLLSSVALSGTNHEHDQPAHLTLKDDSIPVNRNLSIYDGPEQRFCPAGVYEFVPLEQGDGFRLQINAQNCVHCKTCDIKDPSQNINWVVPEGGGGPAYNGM
Experimental: as §1, §2, §3

B1: irisin: secreted cleaved form of FNDC5; recombinant human/mouse irisin with C-terminal his tag produced in HEK293 cells (protein)
chain: DSPSAPVNVTVRHLKANSAVVSWDVLEDEVVIGFAISQQKKDVRMLRFIQEVNTTTRSCALWDLEEDTEYIVHVQAISIQGQSPASEPVLFKTPREAEKMASKNKDEVTMKE
modifications: left off: small tags and cut ends
notes: secreted cleaved form of FNDC5; recombinant human/mouse irisin with C-terminal his tag produced in HEK293 cells
Which results are given for B1?
irsin/adipsin [1]: 2.94; TMT signal-to-noise ratio [2]: 2.707; irisin/adipsin TMT signal-to-noise ratio [2]: 0.034; TMT signal-to-noise ratio [3]: 858.89; irisin/adipsin TMT signal-to-noise ratio [3]: 0.336; TMT signal-to-noise ratio [4]: 30.6918; irisin/adipsin TMT signal-to-noise ratio [4]: 0.532
